Measurements: the supplement of paper PMC9112550, “Optimization of the antimicrobial peptide Bac7 by deep mutational scanning” (BMC Biology, 2022)

System: Escherichia coli TOP10
Experiment: shrunken log2 fold change of peptide-encoding DNA abundance (4.5 h post-induction vs induction); higher = less antimicrobial activity (less host growth inhibition)
Conditions: time post-induction: 4.5 h; library: site-saturation at positions 5, 18, 19, 20
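Also: peptides expressed intracellularly from a pBAD plasmid library in pooled LB shake-flask culture, induced with 0.3% L-arabinose, DNA abundance read by NGS, three biological replicates, DESeq2 with apeglm shrinkage.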

Sequence	shrunken log2 fold change
RRIRQRPPRLPRPRPRPVLRPRP	-0.027
RRIRQRPPRLPRPRPRPVMEPRP	-0.028
RRIRQRPPRLPRPRPRPVMIPRP	-0.286
RRIRQRPPRLPRPRPRPVNWPRP	0.472
RRIRQRPPRLPRPRPRPVPIPRP	-0.0341
RRIRQRPPRLPRPRPRPVPKPRP	-0.00476
RRIRQRPPRLPRPRPRPVPRPRP	0.829
RRIRQRPPRLPRPRPRPVQAPRP	-0.0131
RRIRQRPPRLPRPRPRPVQGPRP	0.0162
RRIRQRPPRLPRPRPRPVQRPRP	0.862
RRIRQRPPRLPRPRPRPVRRPRP	-0.00994
RRIRQRPPRLPRPRPRPVSCPRP	0.0853
RRIRQRPPRLPRPRPRPVSSPRP	-0.255
RRIRQRPPRLPRPRPRPVSTPRP	-0.0279
RRIRQRPPRLPRPRPRPVVCPRP	3.57
RRIRQRPPRLPRPRPRPVVNPRP	-0.126
RRIRQRPPRLPRPRPRPVVSPRP	-0.179
RRIRQRPPRLPRPRPRPVYDPRP	-0.228
RRIRQRPPRLPRPRPRPWAKPRP	-0.000896
RRIRQRPPRLPRPRPRPWARPRP	-0.0405
RRIRQRPPRLPRPRPRPWCCPRP	0.0636
RRIRQRPPRLPRPRPRPWEKPRP	-0.0123
RRIRQRPPRLPRPRPRPWGKPRP	-0.103
RRIRQRPPRLPRPRPRPWGMPRP	-0.0405
RRIRQRPPRLPRPRPRPWHVPRP	-0.0656

Sequence	shrunken log2 fold change
RRIRQRPPRLPRPRPRPWMMPRP	0.0873
RRIRQRPPRLPRPRPRPWMRPRP	0.131
RRIRQRPPRLPRPRPRPWNMPRP	-0.086
RRIRQRPPRLPRPRPRPWPMPRP	-0.0342
RRIRQRPPRLPRPRPRPWPTPRP	0.00213
RRIRQRPPRLPRPRPRPWSWPRP	-0.0208
RRIRQRPPRLPRPRPRPWVNPRP	-0.215
RRIRQRPPRLPRPRPRPWVTPRP	-0.219
RRIRQRPPRLPRPRPRPWVVPRP	0.0305
RRIRQRPPRLPRPRPRPWWDPRP	0.00367
RRIRQRPPRLPRPRPRPWYTPRP	-0.132
RRIRQRPPRLPRPRPRPYAEPRP	-0.0595
RRIRQRPPRLPRPRPRPYAFPRP	-0.175
RRIRQRPPRLPRPRPRPYCEPRP	-0.327
RRIRQRPPRLPRPRPRPYCLPRP	-0.423
RRIRQRPPRLPRPRPRPYFRPRP	-0.368
RRIRQRPPRLPRPRPRPYHTPRP	-0.00448
RRIRQRPPRLPRPRPRPYIFPRP	-0.547
RRIRQRPPRLPRPRPRPYKMPRP	-0.292
RRIRQRPPRLPRPRPRPYKYPRP	-1.49
RRIRQRPPRLPRPRPRPYMFPRP	-0.392
RRIRQRPPRLPRPRPRPYMLPRP	-0.168
RRIRQRPPRLPRPRPRPYNVPRP	-0.0265
RRIRQRPPRLPRPRPRPYQCPRP	-0.263
RRIRQRPPRLPRPRPRPYQKPRP	-0.0335

Sequence	shrunken log2 fold change
RRIRQRPPRLPRPRPRPYQNPRP	-0.816
RRIRQRPPRLPRPRPRPYRRPRP	0.0231
RRIRQRPPRLPRPRPRPYSIPRP	0.098
RRIRQRPPRLPRPRPRPYTNPRP	-0.149
RRIRQRPPRLPRPRPRPYVCPRP	-0.0671
RRIRQRPPRLPRPRPRPYVFPRP	-0.648
RRIRQRPPRLPRPRPRPYVLPRP	-0.512
RRIRQRPPRLPRPRPRPYWIPRP	-0.152
RRIRRRPPRLPRPRPRPACFPRP	0.456
RRIRRRPPRLPRPRPRPACIPRP	0.542
RRIRRRPPRLPRPRPRPACMPRP	0.479
RRIRRRPPRLPRPRPRPADAPRP	0.249
RRIRRRPPRLPRPRPRPADGPRP	0.344
RRIRRRPPRLPRPRPRPADKPRP	-0.121
RRIRRRPPRLPRPRPRPADQPRP	0.0865
RRIRRRPPRLPRPRPRPAFKPRP	0.291
RRIRRRPPRLPRPRPRPAFPPRP	0.356
RRIRRRPPRLPRPRPRPAGTPRP	-0.0331
RRIRRRPPRLPRPRPRPAGVPRP	0.518
RRIRRRPPRLPRPRPRPAHVPRP	0.0907
RRIRRRPPRLPRPRPRPAIYPRP	-0.148
RRIRRRPPRLPRPRPRPAKLPRP	0.0542
RRIRRRPPRLPRPRPRPAKPPRP	0.125
RRIRRRPPRLPRPRPRPALIPRP	1.05
RRIRRRPPRLPRPRPRPALKPRP	0.366

Sequence	shrunken log2 fold change
RRIRRRPPRLPRPRPRPANTPRP	0.0917
RRIRRRPPRLPRPRPRPAPNPRP	0.976
RRIRRRPPRLPRPRPRPAQTPRP	0.348
RRIRRRPPRLPRPRPRPASEPRP	0.182
RRIRRRPPRLPRPRPRPASWPRP	0.337
RRIRRRPPRLPRPRPRPATRPRP	0.226
RRIRRRPPRLPRPRPRPAWLPRP	0.505
RRIRRRPPRLPRPRPRPCAKPRP	0.164
RRIRRRPPRLPRPRPRPCASPRP	0.0214
RRIRRRPPRLPRPRPRPCCQPRP	0.0136
RRIRRRPPRLPRPRPRPCDCPRP	0.00422
RRIRRRPPRLPRPRPRPCDEPRP	0.197
RRIRRRPPRLPRPRPRPCDTPRP	-0.092
RRIRRRPPRLPRPRPRPCEDPRP	0.0155
RRIRRRPPRLPRPRPRPCEQPRP	-0.0395
RRIRRRPPRLPRPRPRPCFSPRP	-0.14
RRIRRRPPRLPRPRPRPCGKPRP	0.254
RRIRRRPPRLPRPRPRPCGRPRP	-0.0337
RRIRRRPPRLPRPRPRPCHGPRP	-0.589
RRIRRRPPRLPRPRPRPCISPRP	-0.0399
RRIRRRPPRLPRPRPRPCKGPRP	0.0306
RRIRRRPPRLPRPRPRPCKVPRP	-0.0103
RRIRRRPPRLPRPRPRPCMGPRP	-0.1
RRIRRRPPRLPRPRPRPCMSPRP	-0.00622
RRIRRRPPRLPRPRPRPCNCPRP	-0.0759

Sequence	shrunken log2 fold change
RRIRRRPPRLPRPRPRPCNVPRP	0.0391
RRIRRRPPRLPRPRPRPCPPPRP	0.0965
RRIRRRPPRLPRPRPRPCQDPRP	-0.275
RRIRRRPPRLPRPRPRPCREPRP	0.0134
RRIRRRPPRLPRPRPRPCSLPRP	0.00239
RRIRRRPPRLPRPRPRPCVTPRP	-0.0627
RRIRRRPPRLPRPRPRPCWAPRP	0.153
RRIRRRPPRLPRPRPRPCYDPRP	-0.194
RRIRRRPPRLPRPRPRPCYRPRP	0.0724
RRIRRRPPRLPRPRPRPDANPRP	0.555
RRIRRRPPRLPRPRPRPDCTPRP	0.252
RRIRRRPPRLPRPRPRPDDDPRP	0.129
RRIRRRPPRLPRPRPRPDFCPRP	-0.0293
RRIRRRPPRLPRPRPRPDGCPRP	0.165
RRIRRRPPRLPRPRPRPDHMPRP	-0.0178
RRIRRRPPRLPRPRPRPDIEPRP	0.172
RRIRRRPPRLPRPRPRPDILPRP	0.0906
RRIRRRPPRLPRPRPRPDIMPRP	-0.146
RRIRRRPPRLPRPRPRPDIPPRP	-0.22
RRIRRRPPRLPRPRPRPDLDPRP	0.67
RRIRRRPPRLPRPRPRPDMEPRP	-0.0393
RRIRRRPPRLPRPRPRPDMRPRP	0.415
RRIRRRPPRLPRPRPRPDMYPRP	-0.315
RRIRRRPPRLPRPRPRPDPHPRP	0.296
RRIRRRPPRLPRPRPRPDRMPRP	-0.00208

Sequence	shrunken log2 fold change
RRIRRRPPRLPRPRPRPDSRPRP	0.0229
RRIRRRPPRLPRPRPRPDTEPRP	0.0209
RRIRRRPPRLPRPRPRPDWGPRP	0.157
RRIRRRPPRLPRPRPRPDWKPRP	0.192
RRIRRRPPRLPRPRPRPDWWPRP	-0.0208
RRIRRRPPRLPRPRPRPDYPPRP	0.0596
RRIRRRPPRLPRPRPRPDYSPRP	-0.263
RRIRRRPPRLPRPRPRPEAPPRP	0.708
RRIRRRPPRLPRPRPRPEAYPRP	0.15
RRIRRRPPRLPRPRPRPEDPPRP	0.192
RRIRRRPPRLPRPRPRPEDQPRP	0.196
RRIRRRPPRLPRPRPRPEDVPRP	-0.0417
RRIRRRPPRLPRPRPRPEEAPRP	1.51
RRIRRRPPRLPRPRPRPEFAPRP	0.129
RRIRRRPPRLPRPRPRPEFCPRP	0.579
RRIRRRPPRLPRPRPRPEFKPRP	0.0599
RRIRRRPPRLPRPRPRPEGEPRP	1.17
RRIRRRPPRLPRPRPRPEGQPRP	0.131
RRIRRRPPRLPRPRPRPEHAPRP	0.686
RRIRRRPPRLPRPRPRPEHKPRP	0.193
RRIRRRPPRLPRPRPRPEIHPRP	-0.265
RRIRRRPPRLPRPRPRPELGPRP	0.809
RRIRRRPPRLPRPRPRPELNPRP	0.312
RRIRRRPPRLPRPRPRPELVPRP	0.27
RRIRRRPPRLPRPRPRPEMAPRP	0.145
